For two substances, stoichiometry N results are on record in publication PMC4981318.

The target of test [1] is gp41 17–163 (construct H; MPER truncated by 9 C-terminal residues) (HIV-1 (HXB2 isolate)). Nature of the test: AUC; sedimentation velocity, 50,000 rpm, 20°C; 20 mM sodium phosphate, pH 7, 150 mM NaCl, 10 mM DPC (excess of micelles); 10–20 μM protein.
For test [2], the target named is gp41 17–194 (Env 528 to 705; FPPR to TM, IL replaced by the L6 spacer) (HIV-1 (HXB2 isolate)). Nature of the test: AUC; sedimentation velocity, 20°C; 20 mM sodium phosphate, pH 7, without NaCl, DPC; 1–2 μM protein left soluble.

As to “gp41 17–163 (construct H; MPER truncated by 9 C-terminal residues) (domain or fragment)”, the stoichiometry N (in general, the number of molecules, sites or subunits per partner or assembly) in test [1] amounted to 3.

With “gp41 17–194 (Env 528 to 705; FPPR to TM, IL replaced by the L6 spacer) (domain or fragment)”, in test [2], the stoichiometry N stood at 3.
